The supplement of paper PMC10126150
± gives the standard deviation of the averaged measurements.

Tested on: ATP
Assay: switch fluorescence ratio, 500 uM ATP over buffer (Cy3 cluster intensity, sum of 5 cycles each) (fold (ratio)); higher = stronger signal-on switching upon ATP binding; sequences stand for … in TCGTCGGCAGCGTCAGATGTGTATAAGAGACAGTTTTTTTTTTTTTTTTTTTTTTTTT…TC
Conditions: aptamer strand: ATP DNA aptamer (quencher-CACCTGGGGGAGTATTGCGGAGGAAGG + anchor), 100 nM annealed; ATP concentration: 500 uM
In short: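 Values give the fluorescence ratio for each switch-domain sequence, averaged from per-cluster ratios of summed target-cycle to summed buffer-cycle Cy3 intensity. The Cy3-labelled switching-strand clusters sat on a modified Illumina MiSeq flow-cell, were annealed to 100 nM quencher-labelled ATP aptamer, and were imaged in selection buffer, then after 15 min with 500 uM ATP at 22 °C. Five cycles ran with NaOH stripping and re-annealing between them, and clusters outside 100-1000 RFU were excluded.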
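Further: ATP exposure 15 min at 22 °C before imaging.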

Row | Sequence | switch fluorescence ratio
1 | AAGGATGTAT | 0.969 ± 0.036
2 | GGTGTTCTGC | 0.995 ± 0.081
3 | GTTGGGCTAT | 0.9916 ± 0.0024
4 | AGGAGGTTAT | 1.01 ± 0.013
5 | TAAATGGGGG | 0.979 ± 0.034
6 | CAGTGAGGTT | 1.02 ± 0.031
7 | TAAAGGGGTG | 1.01 ± 0.038
8 | GATGTTTTTC | 0.97003 ± 0.00087
9 | CTCTTTGCTT | 1 ± 0.006
10 | GCCATGGTTG | 1.04 ± 0.067
11 | GTCGGCATGG | 1.07 ± 0.059
12 | GGACGGTCGG | 1.01 ± 0.052
13 | TGATTAGAGT | 1.01 ± 0.016
14 | TTTTCACCAA | 1.03 ± 0.025
15 | GTGTATGTTT | 1.01 ± 0.028
16 | TTTGACGTGC | 1.02 ± 0.033
17 | GGAAGGGGGC | 0.9707 ± 0.0066
18 | GTGTTACTTT | 0.99 ± 0.017
19 | GGCTTGCCTC | 1.023 ± 0.0069
20 | GCAGAATTTG | 1.02 ± 0.031
21 | TTAAATTTGG | 1.01 ± 0.027
22 | TTAAAAGAGG | 1.01 ± 0.014
23 | CGTGGATAGC | 1.02 ± 0.055

Row | Sequence | switch fluorescence ratio
24 | CAGGGTTTTT | 0.999 ± 0.017
25 | AGAAGTAATG | 0.997 ± 0.011
26 | ACTGTACGGC | 1.46 ± 0.016
27 | TAGTGGGGGA | 0.995 ± 0.015
28 | TAGATTGTCT | 1.01 ± 0.03
29 | TAAAAAGGGG | 0.998 ± 0.012
30 | GCCTTAGCGG | 1.03 ± 0.048
31 | CAAATTTGAT | 1.03 ± 0.027
32 | CTAAGTATGG | 0.9938 ± 0.0096
33 | ATCGCGTACT | 1.19 ± 0.04
34 | TATAACTTAA | 1.03 ± 0.026
35 | TAAGAAGTTT | 0.996 ± 0.028
36 | TGTGAGAGGG | 1 ± 0.019
37 | AAGAGCGAGT | 1 ± 0.011
38 | GTGTTTGGCT | 0.972 ± 0.024
39 | CTCATAAGTT | 1.01 ± 0.028
40 | TTATCGTGCG | 0.9661 ± 0.0079
41 | TCACACGGCG | 1.13 ± 0.18
42 | GCAACAGCAA | 1.04 ± 0.015
43 | GGAGAGGCAG | 0.975 ± 0.026
44 | GGGCAATTGG | 0.992 ± 0.0056
45 | GTGCTGCCGG | 1.01 ± 0.049
46 | GTGTCTGTTG | 0.981 ± 0.02

Row | Sequence | switch fluorescence ratio
47 | TACTAGACAG | 1.028 ± 0.0016
48 | GCTCGAATTA | 1.02 ± 0.016
49 | TTCTTTGGGG | 1.04 ± 0.093
50 | TGTGGCTCTG | 0.9571 ± 0.0087
51 | TATTGGGCAT | 0.985 ± 0.018
52 | GGAGTTAAGC | 1.03 ± 0.061
53 | CTGGCGGGGA | 1.02 ± 0.025
54 | GGGGGGTTTA | 1.01 ± 0.029
55 | CAACCGCCTT | 1.46 ± 0.12
56 | TGAGAGCGTC | 0.89 ± 0.14
57 | CTGGTATTAT | 1.017 ± 0.0046
58 | GGGTCTACCG | 0.991 ± 0.015
59 | AACTTGTCGA | 0.886 ± 0.047
60 | TGATATTTTA | 0.986 ± 0.035
61 | AATTCTTGGG | 0.981 ± 0.018
62 | ATAAGGGGGC | 0.989 ± 0.041
63 | TTTAGTATGT | 1.013 ± 0.0025
64 | CGTTTTTTTC | 1.007 ± 0.01
65 | GGGTTAACGG | 1 ± 0.018
66 | GCTAAAAGTT | 0.995 ± 0.021
67 | CGTGTTAATT | 0.982 ± 0.034
68 | TTTTTACTAT | 1.002 ± 0.0057
69 | AAAGGGTATC | 0.9956 ± 0.0092

Row | Sequence | switch fluorescence ratio
70 | TTGTGCTTAA | 0.989 ± 0.052
71 | ACAGGACGGA | 1.03 ± 0.013
72 | TTATTAGTGA | 0.9904 ± 0.006
73 | TACATAAGTT | 1.02 ± 0.0074
74 | GGTTAGTATG | 1.01 ± 0.027
75 | GGGGGGTACT | 0.994 ± 0.033
76 | TTTTTTGGTC | 1.03 ± 0.037
77 | GTTATAGCGG | 0.976 ± 0.018
78 | GCTATGAG | 0.995 ± 0.037
79 | GGTTGAGCTG | 0.945 ± 0.056
80 | ACCCTTCTGC | 1.15 ± 0.017
81 | GAGGAATTGG | 0.979 ± 0.012
82 | ACATGTTAGT | 1.006 ± 0.0028
83 | TGAACAAGAT | 1.01 ± 0.022
84 | ACGGGGAGGC | 1.07 ± 0.028
85 | GGTATTGGGC | 0.9875 ± 0.0056
86 | TAAAAAGTAT | 1 ± 0.015
87 | GTCGGTACGG | 1 ± 0.026
88 | GTTAGTAGCT | 0.97 ± 0.013
89 | TTGATAGGGG | 1.01 ± 0.031
90 | CCATTGGGGT | 0.995 ± 0.017
91 | TTTGCGGGGG | 1.01 ± 0.035
92 | AAGGCTTGAT | 0.9998 ± 0.0081

Row | Sequence | switch fluorescence ratio
93 | ATGGCCTTAG | 0.9931 ± 0.0094
94 | TTTCCATTTT | 1.02 ± 0.074
95 | GGTCGTCAGT | 0.986 ± 0.037
96 | ATAGCCGTCG | 1.07 ± 0.12
97 | TCTTTGCCGT | 0.982 ± 0.021
98 | AGTTATGTTT | 0.956 ± 0.051
99 | AATATCGCGG | 1.0264 ± 0.001
100 | TGGGAGAGTC | 0.989 ± 0.047
101 | TGGTTAGCG | 1.04 ± 0.024
102 | ATAGACACGC | 1.034 ± 0.0078
103 | TTTACCTCGA | 1.027 ± 0.0069
104 | GGGGGTGGAA | 0.97 ± 0.028
105 | TAAATGGAAA | 0.999 ± 0.051
106 | CCAGCGCACG | 1.541 ± 0.014
107 | AAAAGCTACT | 1.06 ± 0.053
108 | AGAAAGGAGT | 0.9982 ± 0.0032
109 | ATACAACCTG | 1.106 ± 0.0065
110 | AGCGGATTGT | 1 ± 0.02
111 | ACTTGGCGCT | 1.034 ± 0.0095
112 | AGAGTCGAGG | 0.968 ± 0.047
113 | TTTGTCGTAT | 0.996 ± 0.014
114 | TTCTTATTGT | 0.975 ± 0.019
115 | TCGTACTGTG | 1.02 ± 0.1

Row | Sequence | switch fluorescence ratio
116 | TTAAGTTTGT | 0.994 ± 0.022
117 | ATCATGAGGT | 0.97829 ± 0.00072
118 | CCGTTGAGTG | 0.995 ± 0.024
119 | GTCGGACATG | 0.993 ± 0.073
120 | TTACTGATCC | 1.04 ± 0.019
121 | TTTCCTTTTT | 1.15 ± 0.36
122 | AGTTAAAAAT | 0.996 ± 0.022
123 | AGTGGGGTG | 1.03 ± 0.026
124 | ATCGTGGGTT | 0.97919 ± 0.00077
125 | TCGTGCACGA | 1.018 ± 0.0062
126 | AAATGTTCAC | 0.996 ± 0.034
127 | TAACTACGAG | 1.07 ± 0.011
128 | ACCTTCGGGT | 1.03 ± 0.028
129 | AGTTTTTTGG | 1.01 ± 0.033
130 | GAAAGAAACT | 1.63 ± 0.98
131 | GCGATTGGAT | 1.03 ± 0.0022
132 | CCTGGCCTGC | 1.078 ± 0.01
133 | TGGGCTTAGT | 0.992 ± 0.012
134 | ACGGCGTCGC | 1.02 ± 0.026
135 | AAGGTGAAGG | 1.02 ± 0.035
136 | CACCGGTGTT | 1.02 ± 0.032
137 | ACTTGCTTGT | 1.02 ± 0.013
138 | GAGGGGGCTC | 1.04 ± 0.028

Row | Sequence | switch fluorescence ratio
139 | TGGAGTTTGG | 1.15 ± 0.19
140 | ATATGCGGCG | 1.02 ± 0.073
141 | TATAAGACAA | 1.02 ± 0.022
142 | CCACTTTGGG | 1 ± 0.069
143 | AGGTTAGACG | 1.01 ± 0.04
144 | TCAACCCTTA | 1.03 ± 0.038
145 | TGCCATGTGT | 1.032 ± 0.0036
146 | GTTATTAGTG | 0.993 ± 0.016
147 | TTGATCTGTT | 0.972 ± 0.021
148 | AGTCCGGGGT | 1.04 ± 0.025
149 | TGGTGGTGTA | 0.954 ± 0.035
150 | GTGTCGTTTG | 1 ± 0.032
151 | TGTTTGGATT | 0.988 ± 0.013
152 | CTGCCTTGTT | 1 ± 0.015
153 | TCGAGGAGTT | 1.012 ± 0.01
154 | ATTATGTAGA | 0.9958 ± 0.0091
155 | TAAGGCAATT | 1.06 ± 0.041
156 | CCTATATACG | 1.13 ± 0.042
157 | ACTTTGGAGA | 1.029 ± 0.0054
